Laboratory results as given in US20240226039A1, “IMMUNE CHECKPOINT INHIBITOR AND HDAC INHIBITOR COMBINATION THERAPY STRATEGY” (H. Lee Moffitt Cancer Center and Research Institute, Inc., priority 2021, published 2024).

Design: species or system human
Settings: in vivo
Method: Key inclusion criteria: Histologically confirmed mNSCLCm Treatment naïve, and PD-L1 expression≥1% are eligible. Key exclusion criteria: Untreated, progressive, or symptomatic brain metastases, Active uncontrolled autoimmune disorders, and Systemic steroid use equivalent to >10 mg prednisone. […] The primary endpoint was overall response rate (ORR). Additional endpoints included correlative analyses, DOR, PFS and OS. The trial used a Simon Mini-Max two-stage design with interim analysis planned after the first stage when 23 patients were enrolled in each arm.

pembrolizumab [Arm A]
3 (13%): Diarrhea Total
2 (8%): Fatigue Total
0: ALT increased Gr 1 | ALT increased Gr 2 | ALT increased Gr 4 | AST increased Gr 1 | AST increased Gr 2 | AST increased Gr 4 | Alkaline phosphatase increased Gr 1 | Alkaline phosphatase increased Gr 2 | Alkaline phosphatase increased Gr 3 | Alkaline phosphatase increased Gr 4 | Alkaline phosphatase increased Total | Alopecia Gr 1 | Alopecia Gr 2 | Alopecia Gr 3 | Alopecia Gr 4 | Alopecia Total | Anemia Gr 1 | Anemia Gr 2 | Anemia Gr 3 | Anemia Gr 4 | Anemia Total | Anorexia Gr 2 | Anorexia Gr 3 | Anorexia Gr 4 | Arthralgia Gr 1 | Arthralgia Gr 2 | Arthralgia Gr 3 | Arthralgia Gr 4 | Arthralgia Total | Chest pain - cardiac Gr 1 | Chest pain - cardiac Gr 2 | Chest pain - cardiac Gr 4 | Creatinine increased Gr 1 | Creatinine increased Gr 2 | Creatinine increased Gr 3 | Creatinine increased Gr 4 | Creatinine increased Total | Diarrhea Gr 3 | Diarrhea Gr 4 | Dysgeusia Gr 1 | Dysgeusia Gr 2 | Dysgeusia Gr 3 | Dysgeusia Gr 4 | Dysgeusia Total | Fatigue Gr 3 | Fatigue Gr 4 | Heart failure Gr 1 | Heart failure Gr 2 | Heart failure Gr 3 | Heart failure Gr 4 | Heart failure Total | Hyponatremia Gr 1 | Hyponatremia Gr 2 | Hyponatremia Gr 4 | Hypothyroidism Gr 1 | Hypothyroidism Gr 3 | Hypothyroidism Gr 4 | Nausea Gr 1 | Nausea Gr 2 | Nausea Gr 3 | Nausea Gr 4 | Nausea Total | Pain Gr 1 | Pain Gr 2 | Pain Gr 3 | Pain Gr 4 | Pain Total | Pericardial effusion/ tamponade Gr 1 | Pericardial effusion/ tamponade Gr 2 | Pericardial effusion/ tamponade Gr 3 | Pericardial effusion/ tamponade Gr 4 | Pericardial effusion/ tamponade Total | Platelet count decreased Gr 1 | Platelet count decreased Gr 2 | Platelet count decreased Gr 3 | Platelet count decreased Gr 4 | Platelet count decreased Total | Pneumonitis Gr 1 | Pneumonitis Gr 2 | Pneumonitis Gr 4
1 (4%): ALT increased Gr 3 | ALT increased Total | AST increased Gr 3 | AST increased Total | Anorexia Gr 1 | Anorexia Total | Chest pain - cardiac Gr 3 | Chest pain - cardiac Total | Diarrhea Gr 2 | Fatigue Gr 1 | Fatigue Gr 2 | Hyponatremia Gr 3 | Hyponatremia Total | Hypothyroidism Gr 2 | Hypothyroidism Total | Pneumonitis Gr 3
